# From PMC9278865
# Molecular target: wt ACE2_(615)-Fc (M27) (human) (UniProt Q9BYF1)
# Test: SPR
# wt ACE2_(615)-Fc (M27) (human), sequence (Q9BYF1 18-615): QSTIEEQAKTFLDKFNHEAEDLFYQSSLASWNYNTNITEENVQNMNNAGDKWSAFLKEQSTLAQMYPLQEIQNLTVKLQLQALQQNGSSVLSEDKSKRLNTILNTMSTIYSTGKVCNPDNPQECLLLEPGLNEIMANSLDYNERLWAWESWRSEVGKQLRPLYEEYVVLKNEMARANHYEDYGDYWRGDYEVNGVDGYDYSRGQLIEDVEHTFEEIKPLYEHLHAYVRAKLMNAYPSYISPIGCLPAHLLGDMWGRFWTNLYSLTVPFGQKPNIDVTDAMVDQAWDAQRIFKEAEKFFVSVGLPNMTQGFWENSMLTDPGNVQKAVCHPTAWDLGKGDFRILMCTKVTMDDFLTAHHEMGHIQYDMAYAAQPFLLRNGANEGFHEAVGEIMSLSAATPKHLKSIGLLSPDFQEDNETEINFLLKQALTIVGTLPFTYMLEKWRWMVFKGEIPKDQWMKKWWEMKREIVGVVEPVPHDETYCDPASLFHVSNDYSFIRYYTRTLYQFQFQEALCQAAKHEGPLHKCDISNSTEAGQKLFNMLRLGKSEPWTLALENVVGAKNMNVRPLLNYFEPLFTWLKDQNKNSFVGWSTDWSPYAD
substance,measurement,value
SARS-CoV RBD (residues 306 to 577) (domain or fragment),fold lower affinity than RBDwt on M27,5 fold
